The results in this text go back to the DeepSol protein solubility set.

This data set in a line: soluble on expression in E. coli; label from the status in PepcDB or PDB records.
For “MGHHHHHHSHMSSILPFTPPIVKRLLGWKKGEQNGQEEKWCEKAVKSLVKKLKKTGQLDELEKAITTQNVNTKCITIPRSLDGRLQVSHRKGLPHVIYCRLWRWPDLHSHHELRAMELCEFAFNMKKDEVCVNPYHYQRVETPVLPPVLVPRHTEIPAEFPPLDDYSHSIPENTNFPAGIEPQSNIPETPPPGYLSEDGETSDHQMNHSMDAGSPNLSPNPMSPAHNNLDLQPVTYCEPAFWCSISYYELNQRVGETFHASQPSMTVDGFTDPSNSERFCLGLLSNVNRNAAVELTRRHIGRGVRLYYIGGEVFAECLSDSAIFVQSPNCNQRYGWHPATVCKIPPGCNLKIFNNQEFAALLAQSVNQGFEAVYQLTRMCTIRMSFVKGWGAEYRRQTVTSTPCWIELHLNGPLQWLDKVLTQMGSPSIRCSSVS”, the “soluble on expression in E. coli” value is reported as “soluble”.

With “MGHHHHHHSHMTECRKSVPCGWERVVKQRLFGKTAGRFDVYFISPQGLKFRSKSSLANYLHKNGETSLKPEDFDFTVLSKRGIKSRYKDCS”, the “soluble on expression in E. coli” value is recorded as “not soluble”.

For “MGHHHHHHSHMTIEEFAAGPAQSGILVDREVVSLFLHFTVNPKPRVEFIDRPRCCLRGKECSINRFQQVESRWGYSGTSDRIRFSVNKRIFVVGFGLYGSIHGPTDYQVNIQIIHTDSNTVLGQNDTGFSCDGSASTFRVMFKEPVEVLPNVNYTACATLKGPDSHYGTKGLRKVTHESPTTGAKTCFTFCYAAGNNNGTSVEDGQIPEVIFYT”, the “soluble on expression in E. coli” value is “not soluble”.

Consider “MGHHHHHHSHMTVHIKVYSDYVCPFCFVGKAAFEEAIKGKDVEVEWMPFELRPSPSPQLDPVNDPSKQYMWQTSIQPMAEKLGVEINFPNVSPHPYTDLAFEGFHFAKEYNKGHEYNTRVFQAFFQEDQNIGDIDILTKLAEEVGLDGASFKSALETRTYQDVQRQALKHAYEEADITAVPTFIIGDTVIPGAAGKDVFEKAISDEQKKK”, for which the “soluble on expression in E. coli” value is “not soluble”.

For the sequence “MGHHHHHHSHPQLLHFVDQYREQLIARVTSVEVVLDKLHGQVLSQEQYERVLAENTRPSQMRKLFSLSQSWDRKCKDGLYQALKETHPHLIMELWEKG”, the “soluble on expression in E. coli” value is “not soluble”.

For “MGHHHHHHSHQGEEELVSQTDVKTFLEALPQESWQNKHAGSNGNRATNGAPSLVSRGMQGASANTLNSETSTKRAAVYRMNRNHRGLCVIVNNHSFTSLKDRQGTHKDAEILSHVFQWLGFTVHIHNNVTKVEMEMVLQKQKCNPAHADGDCFVFCILTHGRFGAVYSSDEALIPIREIMSHFTALQCPRLAEKPKLFFIQACQGEEIQPSVSIEADALNPEQAPTSLQDSIPAEADFLLGLATVPGYVSFRHVEEGSWYIQSLCNHLKKLVPRMLKFLEKTMEIRGRKRTVWGA”, the “soluble on expression in E. coli” value is “not soluble”.

Consider “MGHHHHHHSHRIVILQGAAGIGKSTLARQVKEAWGRGQLYGDRFQHVFYFSCRELAQSKVVSLAELIGKDGTATPAPIRQILSRPERLLFILDGVDEPGWVLQEPSSELCLHWSQPQPADALLGSLLGKTILPEASFLITARTTALQNLIPSLEQARWVEVLGFSESSRKEYFYRYFT”, for which the “soluble on expression in E. coli” value is on record as “not soluble”.

“MGHVLIEMMGIKKGDFVLDVGCGTGRQALNVAGIIGPAGKLTGIDPSSYRIELARKKFEGDSSGNVRFLVRQAENLQDIPDNSINHAYFCSSFHWVDDKKTALNEIFRVLRPGGKVGMTTLDRNSPNTMKALIDPILAKFGIERRHEWHRGMKKVTAPELHDLLSGAGFTSISIEPRAVPRKYNSPEEFLQHPEEKDSSRGILRDISNETLEKLRQEITEEFRKAQTPEDIGFGNITLFAIATKAQEGLEHHHHHH”: the “soluble on expression in E. coli” value is reported as “soluble”.

Take “MGHYRGTWLEIGRMPMLLTDGCVAGYSTYRQGKSADEVLVEDGCREGTPQGKLKTINGVGKIEDFASTKAKMRVRYPLLITFNYWVLYKSPDKSWFISANPSTEDVWVYARSVPSKAKLNRMMMKVRELGYDVKKLEFPLEHHHHHH”: the “soluble on expression in E. coli” value was “soluble”.

As to “MGIAEWRYQDVPEKLWPIQPLRDFWGINKRTEKKLNKRGIFTIGDLAKYPYHYLKRDFGVLGIDMHLHANGIDQSKLEHHHHHH”, the “soluble on expression in E. coli” value is listed as “not soluble”.

“MGILNKILTAFRGGATEVGQSIVDANSTRIFEQEIRDAEKHLTNAKRELTDVMAKEMQASREVDRLKRSIAEHEGYVTQALDKGNEALAIEVAEKIAQLEQELAEQQTANDSFSAHALRLKDLVKKTERQLSDYQRQLSMVKTTESVQKATATITDSFASSNSKLLNAKDSLERIKARQQQFDDRLKAAETLAEEGSDKSLQAKLAEAGIGEQKSNANAVLERIKARKSLEHHHHHH”: the “soluble on expression in E. coli” value is listed as “not soluble”.

With “MGKALLIVNPSSGKEKGKTYQGKTEEVLKKRYDEVEVRLTEKAGDATEFASWASEQGFDAVIAMGGDGTLNETINGLAIHEKRPDFGFIPLGTVNDLARSVGIPLKPEKAIQALEKAKAIPMDIGRIGDQ”, the “soluble on expression in E. coli” value was “not soluble”.

In the case of “MGKHEKGSSKDLANRTKSKGLQKLKFFCQMCQKQCRDANGFKCHLTSEAHQRQLLLFAENSNSYLRQFSNDFEKNFMQLLRTSYGTKRVRANEVYNAFIKDKGHVHMNSTVWHSLTGFVQYLGSSGKCKIDEGDKGWYIAYIDQEALIRKEEDQRKQQQEKDDEERHMQIMDGMVQRGKELAGDDEHEYEATELIRDTPDQKIQLDLNLGILDRKLDVKSGVASAKISIFDMPKVKKEDPDEPGPSQPSRKSGKKRSRSRSPAAKKFSKKSALDEIKEMEERKKERKNRKDYWMREGIVVKVITKSLGSEYYKAKGVVRKVVDDYTAQVKLDDGTVVKLDQEHVETVIPSLGRQMMIVNGAYRGQEATLESIDEKRFSLRLKIASGPTRGRQIDVPYEDASKLA”, the “soluble on expression in E. coli” value is recorded as “not soluble”.

Take “MGKLYVVPTPVGNLEDMTFRAIKVLKEADLILAEDTRTSGILLKHFEIKNVMQSHHKFNEHKTVESVVNRIKAGETIALISDAGTPGISDPGFLVVRECVRNGIEVQCLPGA”: the “soluble on expression in E. coli” value is on record as “not soluble”.

Take “MGKRKAFIDKKASQSFRLVPDNRERSERFKPTQEHLEEQQKYGVYYDDDYDYLQHMRAVNEPMKLENVHEEVEKTTIKTSGSSAFPPAPPLFGLVGALKKPEFFDEDVANALEEVTDDRNTGELEDNFITLAGGLLDERTTVYRSTRRGEDSEEEEDDDEDDEMYDDYNDDELFGEEAVGEIRVERADQRVIDNAFEELMDREYNTDQIGELDGDDYDVGGALEPNAGRLHKLINDKGPSNAEYDEELAKHYVRERMRLIEEGVIKDKEEYEIVEVDEGTNKKMKWDCESFATQYTNIYNHPTLIKEPRGLSRKALKRFDKAVEEMDIAEEDEDDDEDMEDDDDKESVFSTVSTFRPKNETPEQRSLRKKAVKEARKLRRVEKKANKTMFAEEKRKLAKGRIGQIKARPI”: the “soluble on expression in E. coli” value is recorded as “not soluble”.

On to “MGKRKSKRKAPTKAKAVMPLDTQFNCPFCNHERVCEVKMDREKNVGYISCRVCSEDFQTNINYLSEPIDVYSDWVDACEQANNA”, for which the “soluble on expression in E. coli” value is on record as “not soluble”.

For the sequence “MGKTQEFLRLRRIIALSSLLASRKSAMCLAVLALHAIPGLPVLIAANRDEFHARPTAEATRWPGSPAIYAGRDLQAGGTWLGVSDQGRYAVVTNFRDPRNIQPDAPSRGALVEAFLRGAASAQEYLRDVHARGARYNGFNLIVGDAGGAWYCSNRDGAPQRLAAGVYALSNHLLDTPWPKLARTKAAFERIIAATPQPDLAALYAALADPTPAADHELPATGLALERERLLSSPFIVSPDYGTRSACILALHDDGRGELHERRFRPDGAIAGQADLDFPWRAARAELHRASCVLEHHHHHH”, the “soluble on expression in E. coli” value was “not soluble”.

For “MGLCVSVNRNEYVSSSTTAKIVTINGDLREYDVPVLASQVLESESTSSSSSSSSSSYFLCNSDSLYYDDFIPAIESDEILQANQIYFVLPISKRQYRLSASDMAALAVKASVAIEKAAGKKNRRRRSGRISPVVTLNQANDNRIAAVNNRIGGEATNMMMQKGKLPNRTTPFKDTNGYSRSGSVRKLKRYTSGRAKLAVRSFRLRLSTIYEGSSFN”, the “soluble on expression in E. coli” value is recorded as “not soluble”.

Regarding “MGLDIRFTGVADSSGALHDPDGLDIRGVLEHKKRAGLGSHPSGYEGMTGDELLDEAEYDCLVEATPTNIEDGEPGRSLVLKAMGDGKHVVTSNKGHLALFYSELMEAASEAGVEFMFEASVGGAMPIINLARETLASCTIESVIGILNGTTNFILSRMASEGSSYRQALIEAQELGIAETNPAQDVEGTDAACKAVIIANSILGRPCTLRDVRVEGITGITQGAIELAAQEGYLIKLIAEISGDRLEVGPRLVRMGSPYAVDGTLNMATLRTDLAGEVTAVGRGAGSLETASAMLTDTITIWRKSGLEHHHHHH”, the “soluble on expression in E. coli” value is recorded as “not soluble”.

Turning to “MGLFQIKPDIHYGANSLDILRTLEMEKVFLVTDENMVKLKVINKVTNILKSRGIEAKVYSDVKPDPTDEEIIKGMLELSAHDPDCIIALGGGSPIDACKSMIYFTNQIKRAMGQNKKPKFIAIPTTSGTGSEVTSYAVVTTKDKKIPLSDSEMLPDIAILNPEFIKTLSPSIIADTGMDVLTHAIEAYVSKSRNLFTNTFAIGAIKTVFADLVSNFENPQLEKERINLQIASCMAGVAFSNAGLGINHSIAHSLGARFHKPHGRLNAVIMSEVIQFNARNKNAAKYYREIVEALGFSPKEDVEGVEILAKAIKMRAAKMGIPNSLSELGIPKEQYFDEMEGIIDQIENDMCTGENPRRFSRIEMKQLLTDLY”, the “soluble on expression in E. coli” value is “not soluble”.

Regarding “MGLIIYHKGGRKMKKNILIVGGGPEITICYDLINNSTEYNFFSVSEIPTMYPELFVETIETSFRNFGKTIEQIKELKYSIDAVACWDEALTHIADDISKELGLNPISSLDSQSFRFKDRMRMVCEAGGLKMPKYKIINQFSDTNKIINWKYPLIVKPTSFLASIGVKKVYNFSELQQAVSQMLNVKFPVYIASGVYELGELYNLEPRVLVEEFIDGEEYSLESVVRNGIYTPLGITKKIVDEKLFMDEIGHIFPSNLNKEEKSRVYSWAEKLHQILQLNHITTHTEFRIGRNGDIILIEIGARIGGDCIPNLMKNSFIVKGFDFYNTYLKARLGLQEELNTDTNKFSGIVFFRLNPENYGKIFNGVSYDAPKTSLIFEEKIYKKEGTVLPNPINWSNERVGYVCLENKEYAVLEKEMKEILKSLSIE”, the “soluble on expression in E. coli” value is “not soluble”.

Take “MGLISAAVGAVGGGLADQWLEVIEAGDMGEGIVLAKGVAVRTDKRNTNKKGSSDVVSNGSIIHVNQNQFMMLVDGGKIVDYTAEPGYFKVENSASPSLFGGQFGDALKETFSRFKFGGTTPMKQEVFYVNLQEIKGIKFGTPNPLQYFDNFYNAELFLRTFGNYSIKITDPIKFFKEACPRDAENVHIDEINEQYLSEFLEALQAAISQMSMEGERISFIPSKGTVLSKHMSEILDDSWKELRGMEVLSVGIASISYDDESKELINMRNKGAMLGDPGVREGYVQGSIARGMEAAGSNQAGAGMAFMGMGMGMNAAGGFMGQASQTNMQQMQMNQAAQRAAQGAGQQQGAGAKAAGEWFCTECGHKNTGKFCAECGTPKPQGLEHHHHHH”: the “soluble on expression in E. coli” value is reported as “soluble”.
